Source: US20230192903A1 (published 2023)
Where a chain is given by its changes, count along the chain named. Names may count otherwise.

B1: bispecific antibody Y6 (bispecific antibody, human IgG1, kappa)
light: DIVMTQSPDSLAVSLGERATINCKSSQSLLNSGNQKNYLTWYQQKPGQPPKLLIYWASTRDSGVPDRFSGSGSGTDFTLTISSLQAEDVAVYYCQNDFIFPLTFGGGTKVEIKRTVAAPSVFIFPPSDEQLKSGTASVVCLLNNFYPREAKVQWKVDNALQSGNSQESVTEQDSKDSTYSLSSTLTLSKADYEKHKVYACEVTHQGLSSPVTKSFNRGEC
heavy: QVQLQESGPGLVKPSETLSLTCTVSGFSLTRYGVSWIRQPPGKGLEWIGVIWGEGNTNYNPSLKSRVTISKDSSKSQVSLKLSSVTAADTAVYYCARVNFGNALDYWGQGTLVTVSSASTKGPSVFPLAPSSKSTSGGTAALGCLVKDYFPEPVTVSWNSGALTSGVHTFPAVLQSSGLYSLSSVVTVPSSSLGTQTYICNVNHKPSNTKVDKKVEPKSCDKTHTCPPCPAPPVAGPSVFLFPPKPKDTLMISRTPEVTCVVVDVSHEAPEVQFNWYVDGVEVHNAKTKPREEQFNSTFRVVSVLTVVHQDWLNGKEYKCKVSNKGLPAPIEKTISKTKGQPREPQVYTLPPCRDELTKNQVSLWCLVKGFYPSDIAVEWESNGQPENNYKTTPPVLDSDGSFFLYSKLTVDKSRWQQGNVFSCSVMHEALHNHYTQKSLSLSPGK
chain: QVQLVESGGGVVQPGRSLRLSCAASGFTFSTYAMNWVRQAPGKGLEWVARIRSKYNNYATYYADSVKDRFTISRDDSKNTLYLQMNSLRAEDTAVYYCARHGNFGNSYVSWFAYWGQGTLVTVSSGGGGSGGGGSGGGGSQTVVTQEPSLTVSPGGTVTLTCRSSTGAVTTSNYANWVQQKPGQAPRGLIGGTNKRAPGVPARFSGSLLGGKAALTLSGVQPEDEAEYYCALWYSNLWVFGGGTKVEIKGRGRGSDKTHTCPPCPAPPVAGPSVFLFPPKPKDTLMISRTPEVTCVVVDVSHEAPEVQFNWYVDGVEVHNAKTKPREEQFNSTFRVVSVLTVVHQDWLNGKEYKCKVSNKGLPAPIEKTISKTKGQPREPQVCTLPPSRDELTKNQVSLSCAVKGFYPSDIAVEWESNGQPENNYKTTPPVLDSDGSFFLVSKLTVDKSRWQQGNVFSCSVMHEALHNHYTQKSLSLSPGK
notes: YBODY structure: anti-CLDN18.2 Fab arm (2C6.9) and second monomer anti-CD3 scFv (2a5)-Fc
B2: bispecific antibody Y8 (bispecific antibody, human IgG1, kappa)
light: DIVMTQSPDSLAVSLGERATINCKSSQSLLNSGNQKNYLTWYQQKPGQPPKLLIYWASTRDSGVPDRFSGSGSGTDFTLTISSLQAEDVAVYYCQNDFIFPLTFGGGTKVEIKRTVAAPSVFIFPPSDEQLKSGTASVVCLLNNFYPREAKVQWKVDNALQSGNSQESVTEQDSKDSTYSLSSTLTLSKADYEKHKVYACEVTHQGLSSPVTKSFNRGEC
heavy: B1 heavy
chain: not shown
notes: YBODY structure: anti-CLDN18.2 Fab arm (2C6.9) and second monomer anti-CD3 scFv (L2K)-Fc
B3: bispecific antibody Y1 (bispecific antibody, human IgG1, kappa)
light: DIVMTQSPSSLTVTAGEKVTMSCKSSQSLLNSGNQKNYLTWYQQKPGQPPKLLIYWASTRESGVPDRFTGSGSGTDFTLTISSVQAEDLAVYYCQNDYSYPFTFGSGTKLEIKRTVAAPSVFIFPPSDEQLKSGTASVVCLLNNFYPREAKVQWKVDNALQSGNSQESVTEQDSKDSTYSLSSTLTLSKADYEKHKVYACEVTHQGLSSPVTKSFNRGEC
heavy: QVQLQQPGAELVRPGASVKLSCKASGYTFTSYWINWVKQRPGQGLEWIGNIYPSDSYTNYNQKFKDKATLTVDKSSSTAYMQLSSPTSEDSAVYYCTRSWRGNSFDYWGQGTTLTVSSASTKGPSVFPLAPSSKSTSGGTAALGCLVKDYFPEPVTVSWNSGALTSGVHTFPAVLQSSGLYSLSSVVTVPSSSLGTQTYICNVNHKPSNTKVDKKVEPKSCDKTHTCPPCPAPPVAGPSVFLFPPKPKDTLMISRTPEVTCVVVDVSHEAPEVQFNWYVDGVEVHNAKTKPREEQFNSTFRVVSVLTVVHQDWLNGKEYKCKVSNKGLPAPIEKTISKTKGQPREPQVYTLPPCRDELTKNQVSLWCLVKGFYPSDIAVEWESNGQPENNYKTTPPVLDSDGSFFLYSKLTVDKSRWQQGNVFSCSVMHEALHNHYTQKSLSLSPGK
chain: B1 chain with F112A, V178F
notes: YBODY structure: anti-CLDN18.2 Fab arm (175D10) and second monomer anti-CD3 scFv (2a5ga)-Fc
B4: bispecific antibody CS5 (bispecific antibody, human IgG1, kappa)
light: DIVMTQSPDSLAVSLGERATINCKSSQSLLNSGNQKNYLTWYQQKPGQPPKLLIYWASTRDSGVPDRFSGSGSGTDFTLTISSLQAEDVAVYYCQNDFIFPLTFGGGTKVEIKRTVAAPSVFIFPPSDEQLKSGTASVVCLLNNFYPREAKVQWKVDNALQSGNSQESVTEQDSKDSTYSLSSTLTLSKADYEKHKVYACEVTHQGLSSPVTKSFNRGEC
heavy 1: B1 heavy
heavy 2: QVQLQESGPGLVKPSETLSLTCTVSGFSLTRYGVSWIRQPPGKGLEWIGVIWGEGNTNYNPSLKSRVTISKDSSKSQVSLKLSSVTAADTAVYYCARVNFGNALDYWGQGTLVTVSSASTKGPSVFPLAPSSKSTSGGTAALGCLVKDYFPEPVTVSWNSGALTSGVHTFPAVLQSSGLYSLSSVVTVPSSSLGTQTYICNVNHKPSNTKVDKKVEPKSCDKTHTAPAPAPAPAPAPAPAPQVQLVESGGGVVQPGRSLRLSCAASGFTFSTYAMNWVRQAPGKGLEWVARIRSKYNNYATYYADSVKDRFTISRDDSKNTLYLQMNSLRAEDTAVYYCARHGNFGNSYVSWAAYWGQGTLVTVSSGGGGSGGGGSGGGGSQTVVTQEPSLTVSPGGTVTLTCRSSTGAVTTSNYANWFQQKPGQAPRGLIGGTNKRAPGVPARFSGSLLGGKAALTLSGVQPEDEAEYYCALWYSNLWVFGGGTKVEIKGGGGSDKTHTCPPCPAPPVAGPSVFLFPPKPKDTLMISRTPEVTCVVVDVSHEAPEVQFNWYVDGVEVHNAKTKPREEQFNSTFRVVSVLTVVHQDWLNGKEYKCKVSNKGLPAPIEKTISKTKGQPREPQVCTLPPSRDELTKNQVSLSCAVKGFYPSDIAVEWESNGQPENNYKTTPPVLDSDGSFFLVSKLTVDKSRWQQGNVFSCSVMHEALHNHYTQKSLSLSPGK
notes: CSBODY structure: two 2C6.9 Fab arms; second heavy chain (first heavy entry) and first heavy chain with anti-CD3 scFv (2a5ga) between CH1 and Fc2
B5: IMAB362 monoclonal antibody (antibody, human IgG1, kappa, V domains shown)
VH: QVQLQQPGAELVRPGASVKLSCKASGYTFTSYWINWVKQRPGQGLEWIGNIYPSDSYTNYNQKFKDKATLTVDKSSSTAYMQLSSPTSEDSAVYYCTRSWRGNSFDYWGQGTTLTVSS
VL: DIVMTQSPSSLTVTAGEKVTMSCKSSQSLLNSGNQKNYLTWYQQKPGQPPKLLIYWASTRESGVPDRFTGSGSGTDFTLTISSVQAEDLAVYYCQNDYSYPFTFGSGTKLEIKR
notes: prepared by Wuhan YZY Biopharma; also called Anti-CLDN18.2 monoclonal antibody IMAB362
B6: Anti-CLDN18.2 monoclonal antibody 2C6.9 (antibody, human IgG1, kappa, V domains shown)
VH: QVQLQESGPGLVKPSETLSLTCTVSGFSLTRYGVSWIRQPPGKGLEWIGVIWGEGNTNYNPSLKSRVTISKDSSKSQVSLKLSSVTAADTAVYYCARVNFGNALDYWGQGTLVTVSS
VL: DIVMTQSPDSLAVSLGERATINCKSSQSLLNSGNQKNYLTWYQQKPGQPPKLLIYWASTRDSGVPDRFSGSGSGTDFTLTISSLQAEDVAVYYCQNDFIFPLTFGGGTKVEIKR
notes: prepared by Wuhan YZY Biopharma
B7: anti-CLDN18.2 monoclonal antibody 1E9.2 (antibody, human IgG1, kappa, V domains shown)
VH: EVQLVESGGGLVKPGGSLRLSCAASGFSFSNSAMSWVRQAPGKGLEWVSTISSGDSYTYYADSVKGRFTISRDNAKNSLYLQMNSLRAEDTAVYYCARQGYGNALDYWGQGTLVTVSS
VL: B6 VL with A57S, D61E, V89F, F98Y, I99Y, F100Y
notes: as for B6
B8: bispecific antibody CS2 (bispecific antibody, human IgG1, kappa)
light: B3 light
heavy 1: B3 heavy
heavy 2: QVQLQQPGAELVRPGASVKLSCKASGYTFTSYWINWVKQRPGQGLEWIGNIYPSDSYTNYNQKFKDKATLTVDKSSSTAYMQLSSPTSEDSAVYYCTRSWRGNSFDYWGQGTTLTVSSASTKGPSVFPLAPSSKSTSGGTAALGCLVKDYFPEPVTVSWNSGALTSGVHTFPAVLQSSGLYSLSSVVTVPSSSLGTQTYICNVNHKPSNTKVDKKVEPKSCDKTHTAPAPAPAPAPAPAPAPQVQLVESGGGVVQPGRSLRLSCAASGFTFSTYAMNWVRQAPGKGLEWVARIRSKYNNYATYYADSVKDRFTISRDDSKNTLYLQMNSLRAEDTAVYYCARHGNFGNSYVSWFAYWGQGTLVTVSSGGGGSGGGGSGGGGSQTVVTQEPSLTVSPGGTVTLTCRSSTGAVTTSNYANWVQQKPGQAPRGLIGGTNKRAPGVPARFSGSLLGGKAALTLSGVQPEDEAEYYCALWYSNLWVFGGGTKVEIKGGGGSDKTHTCPPCPAPPVAGPSVFLFPPKPKDTLMISRTPEVTCVVVDVSHEAPEVQFNWYVDGVEVHNAKTKPREEQFNSTFRVVSVLTVVHQDWLNGKEYKCKVSNKGLPAPIEKTISKTKGQPREPQVCTLPPSRDELTKNQVSLSCAVKGFYPSDIAVEWESNGQPENNYKTTPPVLDSDGSFFLVSKLTVDKSRWQQGNVFSCSVMHEALHNHYTQKSLSLSPGK
notes: CSBODY structure: two 175D10 Fab arms; second heavy chain (first heavy entry) and first heavy chain with anti-CD3 scFv (2a5) between CH1 and Fc2
B9: bispecific antibody CS9 (bispecific antibody, human IgG1, kappa)
light: B3 light
heavy 1: B3 heavy
heavy 2: not shown
notes: CSBODY structure: two 175D10 Fab arms; second heavy chain (first heavy entry) and first heavy chain with anti-CD3 scFv (L2K) between CH1 and Fc2

Tests used:
human CD3 antigen = biological target: T1, human CD3 antigen (human, UniProt P07766 23-126); assay: SPR (Biacore T200), human CD3 antigen amine-coupled on CM5 chip, 1:1 fit
T1 construct: also called Human CD3ϵ
Method: After the detection was completed, data fitting was carried out on the result pattern by adopting Biacore T200 Evaluation Software in a 1:1 binding fitting mode to obtain an equilibrium dissociation constant (KD).

Human CLDN18.2 [1] = biological target: Human CLDN18.2 (human); assay: cell-based or functional assay
Human CLDN18.2 [2] = biological target: Human CLDN18.2 (human); assay: cell-based or functional assay; remark: listed apart in the source
Human CLDN18.2 [3] = biological target: T2, Human CLDN18.2 (human); assay: flow cytometry, NUGC4 cells (endogenous CLDN18.2)
T2 construct: the cell line is named under assay; also called hCLDN18.2; human CLDN18.2 antigen
Method: (§1) NUGC4 and NUGC4-hCLDN18.2 cells were cultured, digested with pancreatin and centrifuged to collect cells. The cells were collected and resuspended in buffer (PBS+1% FBS) at 1×10⁴ cells/well in a 96-well plate at 100 μL per well. Then the mixture was centrifuged at 350×g for 5 min, and the supernatant was removed.

Human CLDN18.2 [4] = biological target: T2, Human CLDN18.2; assay: flow cytometry, NUGC4-hCLDN18.2 cells
Method: as §1

Human CLDN18.2 [5] = biological target: T2, Human CLDN18.2; assay: flow cytometry, NUGC4-hCLDN18.2 cells; remark: listed apart in the source
Method: as §1

Human CLDN18.1 = biological target: T3, Human CLDN18.1 (human, UniProt P56856 1-261); assay: flow cytometry, 293T-hCLDN18.1 cells
T3 construct: also called hCLDN18.1

Human CLDN18.2 [6] = biological target: T2, Human CLDN18.2; assay: cell-based or functional assay; remark: listed apart in the source

Binder | Kd (human CD3 antigen) [nM] | EC50 (pM), in vitro killing by hPBMC, NUGC4-hCLDN18.2 cells (Human CLDN18.2 [1]) [pM] | EC50 (pM), in vitro killing by hPBMC, NUGC4 cells (Human CLDN18.2 [1]) [pM] | Induction of expression of CD25 EC50 (pM), NUGC4 (Human CLDN18.2 [2]) [pM] | Induction of expression of CD25 EC50 (pM), NUGC4-hCLDN18.2 (Human CLDN18.2 [2]) [pM] | Induction of expression of CD69 EC50 (pM), NUGC4 (Human CLDN18.2 [2]) [pM] | Induction of expression of CD69 EC50 (pM), NUGC4-hCLDN18.2 (Human CLDN18.2 [2]) [pM] | EC50 (Human CLDN18.2 [3]) [nM] | EC50 (Human CLDN18.2 [4]) [nM] | EC50 (Human CLDN18.2 [5]) [nM] | binding result (Human CLDN18.1) | EC50 value for killing effect on NUGC4-hCLDN18.2 cells (Human CLDN18.2 [6]) [nM]
B1 | 5.77 | 1.07 | 7.99 | 17.2 | 2.32 | 4.87 | 0.592 | 184 | 45.9 | – | – | –
B2 | – | 4.09 | 57.8 | 182 | 16.5 | 33.3 | 2.98 | 75.1 | 46.9 | – | – | –
B3 | 1980 | – | – | – | – | – | – | – | – | – | – | –
B4 | – | 132 | 433 | 481 | 142 | 141 | 70.5 | 25.7 | 18.2 | – | – | –
B5 | – | – | – | – | – | – | – | – | – | 10.8 | – | –
B6 | – | – | – | – | – | – | – | – | – | – | no binding (tested: 1000 nM) | –
B7 | – | – | – | – | – | – | – | – | – | – | no binding (tested: 1000 nM) | –
B8 | 3.1 | 2.17 | – | 216 | 1.21 | 29.5 | 0.389 | – | 36 | – | – | –
B9 | – | – | – | – | – | – | – | – | – | < 50 | no binding | < 0.01
